This is an account of results in PMC12017799, “Molecular mechanism of SmMYB53 activates the expression of SmCYP71D375, thereby modulating tanshinone accumulation in Salvia miltiorrhiza”.

This data set addresses SmMYB53 (Salvia miltiorrhiza, UniProt A0A059PSP0 1-372). Nature of the data set: EMSA; SmMYB53 alone; LightShift Chemiluminescent EMSA kit (Beyotime) binding buffer, >30 min at 4 C; unlabeled competitor 10-fold; salt and pH not stated. The following applies: protein: recombinant; tags: His (pCold); label: biotin; blunt.

SmMYB53, sequence (A0A059PSP0 entry or part of it): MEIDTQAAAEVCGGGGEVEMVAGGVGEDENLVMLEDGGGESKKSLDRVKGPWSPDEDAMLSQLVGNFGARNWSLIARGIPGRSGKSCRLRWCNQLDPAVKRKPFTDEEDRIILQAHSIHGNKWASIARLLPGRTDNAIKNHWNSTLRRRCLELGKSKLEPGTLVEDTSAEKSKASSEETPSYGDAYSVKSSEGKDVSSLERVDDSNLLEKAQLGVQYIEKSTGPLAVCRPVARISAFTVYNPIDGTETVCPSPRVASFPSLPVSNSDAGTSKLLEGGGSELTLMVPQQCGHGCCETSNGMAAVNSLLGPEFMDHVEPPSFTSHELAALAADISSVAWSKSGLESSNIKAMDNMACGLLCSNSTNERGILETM

B1: MBS2 probe (SmCYP71D375 promoter) (dsDNA)
DNA 1: AGATCCGTTGGAGAAGATCCGTTGGAGAAGATCCGTTGGAGA
DNA 2: TCTCCAACGGATCTTCTCCAACGGATCTTCTCCAACGGATCT
Take B1: the binding result was “binds”.

B2: MBS1 probe (SmCYP71D375 promoter) (dsDNA)
DNA 1: GCTTCAGTTGAGCTGCTTCAGTTGAGCTGCTTCAGTTGAGCT
DNA 2: AGCTCAACTGAAGCAGCTCAACTGAAGCAGCTCAACTGAAGC
For B2, the binding result is given as “binds”.
